Among the data in patent US20090099074A1, “MODULATING FOOD INTAKE” (CONJUCHEM BIOTECHNOLOGIES INC., priority 2007, published 2009) are IC50 values, retold here.

The experiment has as its target NPY Y1 receptor. The experiment can be described thus: in vitro NPY Y1 receptor binding assay; tracer and cells not stated.

Sequence of NPY Y1 receptor (P25929 whole entry): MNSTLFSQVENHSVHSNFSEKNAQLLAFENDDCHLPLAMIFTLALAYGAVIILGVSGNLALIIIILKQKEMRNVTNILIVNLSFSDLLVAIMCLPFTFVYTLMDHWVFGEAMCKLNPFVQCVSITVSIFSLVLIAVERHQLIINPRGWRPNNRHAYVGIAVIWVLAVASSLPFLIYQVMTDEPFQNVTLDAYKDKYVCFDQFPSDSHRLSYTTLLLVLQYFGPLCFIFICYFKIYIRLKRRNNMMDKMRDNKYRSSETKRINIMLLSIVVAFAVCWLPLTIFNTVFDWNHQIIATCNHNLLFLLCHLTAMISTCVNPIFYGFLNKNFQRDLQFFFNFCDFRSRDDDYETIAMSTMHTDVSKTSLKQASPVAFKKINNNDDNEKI

Turning to “NPY(human, rat) control (from UniProt P01303 29-64) (peptide)”, the 50% inhibitory concentration (IC50) (commonly the concentration needed to halve the response being measured) stood at 1.09 nM.
